{"source": "patent US9364516B2", "about": "“Treatment of fibrosis-related disorders using fibronectin binding proteins and polypeptides” (priority 2010, dated 2016)", "molecules": {"B1": {"name": "pUR4: 49-mer peptide derived from the bacterial F1 adhesin, His tagged, SEQ ID NO:1; class I fibronectin polymerization inhibitor (peptide)", "chain": "MRGSHHHHHHGSKDQSPLAGESGETEYITEVYGNQQNPVDIDKKLPNETGFSGNMVETEDTKLN", "modifications": "His tag; Bacterial adhesin derived peptide pUR4"}}, "key": {"laminin": {"tested_on": "laminin", "experiment": "ELISA binding of pUR4 to ECM proteins: laminin", "conditions": "plates coated 10 μg/mL, FIG. 7", "protocol": "FIG. 7 is a graph depicting the binding of pUR4 to ECM Proteins. 96-well plates were coated with 10 μg/mL type I collagen (COL), denatured type I collagen (dCOL), fibronectin (FN), laminin (LN), vitronectin (VN), or fibrinogen (FG) at 4° C. overnight. pUR4 was added to the wells and serially diluted. Bound pUR4 was detected as described herein. Measurements were done at 405 nm on a Wallac 1420 multilabel counter. Data represents the average of duplicate determinations, and the error bars the range.\n96-well tissue culture plates were coated with 10 μg/mL type I collagen, fibronectin, laminin, fibrinogen, or vitronectin overnight at 4° C. Denatured collagens were generated as described (George et al., “Fibronectins are Essential for Heart and Blood Vessel Morphogenesis but are Dispensable for Initial Specification of Precursor Cells,” Blood 90:3073-3081 (1997), which is hereby incorporated by reference in its entirety). Plates were blocked with 1% bovine serum albumin (BSA) in Tris buffered saline (TBS) for 1 hour, then washed with TBS. pUR4 was serially diluted into coated wells, then incubated at room temperature for 90 min. Wells were washed with TBS containing 0.1% Tween 20. […] After washing, peroxidase activity was quantified by using 2,2′-azino-bis-(3-ethylbenthiazoline-[…]). […]"}, "Rat aortic SMCs": {"tested_on": "Rat aortic SMCs", "experiment": "qRT-PCR of fibronectin and collagen I in SMC", "format": "cell-based", "conditions": "500 nM, 24 h; PBS control set equal to 1; average of duplicates ± range", "protocol": "mRNA was isolated from RASMs 24 hours after incubation with 500 nM pUR4 or III-11C control peptides using RNAzol as per the manufacturer's instructions (Invitrogen). cDNA was prepared using a Superscript First Strand cDNA kit as per the manufacturer's instructions (Invitrogen). Mouse carotid arteries were harvested and frozen in liquid nitrogen. RNA was isolated using Trizol and purified using a QIAgen RNeasy Micro Kit. RNA integrity was examined with an Agilent 2100 Bioanalyser using RNA6000 NanoAssay (Agilent Technology). Whole transcriptome amplification was performed using Qiagen's QuantiTect Whole Transcriptome Amplification Kit. Quantitative RT-PCR analyses were performed using ABI Prism 7900HT sequence detection system (Applied Biosystems). The qRT-PCR primers for 3 mouse genes were obtained from ABI: GADPH (4352932E), fibronectin (Mm01256744_m1), and collagen Ia1 (Mm00801666_g1). TaqMan probe chemistry was used according to the manufacturer's instructions. qRT-PCR reactions were run in triplicate for each sample. The data was normalized to the levels of GAPDH in each sample, and the results were averaged."}, "mice": {"tested_on": "mice", "experiment": "Dimethylnitrosamine (DMN) induced liver fibrosis", "format": "in vivo, mouse", "protocol": "Collagen content in the liver of mice was measured by quantitating hydroxyproline levels (FIG. 17A). Treatment groups were DMN treated mice that were post treated with pUR4 or control III-11C peptide, DMN without peptide, and saline treated control mice. Fibronectin content in the liver of mice was assessed by immunohistochemistry of liver sections using a fibronectin antibody (FIG. 17B). Inflammatory cell infiltration into the liver was assessed by quantitating the CD45 positive cells per unit area (FIG. 17C). Sequential model (FIGS. 17A, 17B); Simultaneous model (FIG. 17C). n=3 in each group.\nLiver fibrosis was induced in mice by administration of dimethylnitrosamine (DMN) for 4 weeks as previously described (Yoshida et al., “SOCS1 is a Suppressor of Liver Fibrosis and Hepatitis-Induced Carcinogenesis,” J. Exp. Med. 199:1701-1707 (2004)). This is a well established model of liver fibrosis and some of the key pathological features that develop in DMN induced fibrosis are similar to those seen in humans with liver fibrosis (Wu et al., “Animal Models of Liver Fibrosis,” Scand. J. Gastroenterol. 31:1137-1143 (1996); Jenkins et al., “A Dimethylnitrosamine-Induced Model of Cirrhosis and Portal Hypertension in the Rat,” J. Hepatol. 1:489-499 (1985), which are hereby incorporated by reference in their entirety). pUR4 was either administered for the last 10 days of DMN treatment (simultaneous treatment regimen), or for 14 days following cessation of DMN treatment (sequential treatment regimen). The latter model was performed to determine whether the peptide is effective when administered after fibrosis is established.\nDimethylnitrosamine (DMN) will be used to induce liver injury and fibrosis in mice (10 mg/kg body weight, 3×/week for 4 weeks) as described in Example 16. The experimental groups will include: 1) DMN alone; 2) DMN+pUR4 peptide; and 3) DMN+control peptide. Non DMN-treated control animals will receive i.p. injections of 0.9% saline plus: 4) pUR4; or 5) the control peptide. Two treatment strategies will be used, as described in Example 16. In the simultaneous treatment strategy, peptides will be administered daily during the last 10 days of DMN treatment. This will allow assessment of pUR4 on preventing fibrosis development. In the sequential treatment strategy, DMN will be injected for 4 weeks. Peptides will then be administered daily for 14 days in the absence of DMN. This will allow assessment of pUR4 on preventing fibrosis progression."}, "[1]": {"conditions": "animals treated in the absence of injury for up to 2 weeks"}, "[2]": {"conditions": "sequential treatment: 14 days following cessation of DMN, 20 mg/kg/d"}}, "data": [{"molecule": "B1", "values": [{"measurement": "binding to laminin", "setting": "laminin", "value": "does not bind"}, {"measurement": "Col Ia1 mRNA, relative level", "setting": "Rat aortic SMCs", "value": "1.42 ± 0.06"}, {"measurement": "Fibronectin mRNA, relative level", "setting": "Rat aortic SMCs", "value": "1.43 ± 0.02"}, {"measurement": "adverse effects", "setting": "mice; [1]", "value": "do not show any adverse effects"}, {"measurement": "decrease in the normal levels of ECM fibronectin or collagen I", "setting": "mice; [1]", "value": "do not show"}, {"measurement": "inflammation in the liver", "setting": "mice; sequential treatment model", "value": "trend towards reduced"}, {"measurement": "collagen I content in the liver (hydroxyproline)", "setting": "mice; [2]", "value": "reduced"}, {"measurement": "fibronectin content in the liver", "setting": "mice; [2]", "value": "reduced"}, {"measurement": "infiltration of immune cells (CD45) into the liver", "setting": "mice; simultaneous treatment regimen", "value": "significantly reduced"}]}]}
